In PMC10901556, “Conservation of Affinity Rather Than Sequence Underlies a Dynamic Evolution of the Motif-Mediated p53/MDM2 Interaction in Ray-Finned Fishes” (Molecular Biology and Evolution, 2024):
Where no end group is shown, it is not given here.

B1: MDM2_(D.rerio) SWIB domain (domain or fragment)
chain: SQISKVDNEKLVRPKVQLKSLLEDAGADKDVFTMKEVMFYLGKYIMSKELYDKQQQHIVHCGEDPLGAVLGVKSFSVKEPRALFALINRNLVT

Tests used:
Experiment in all cases: fluorescence polarisation; displacement: complex of MDM2 (0.2-2 μM) and FITC-p53TAD_(human)^15–26 (15 nM) displaced by increasing unlabeled p53TAD peptide or p53TAD^full-length; KD calculated from IC50 (Nikolovska-Coleska et al. 2004); 20 mM sodium phosphate pH 7.4, 150 mM NaCl, 1 mM TCEP
Details in all cases: both partners purified
[1] = biological target: T1, p53TAD_(H.sapiens)^15–27 (Homo sapiens (human), N-terminal acetylated)
T1 construct: also called p53TAD_(human)^15–27; Homo sapiens (human) p53TAD^15–27; source: bought: GeneCust (France), peptide

[2] = biological target: B1
[3] = biological target: T2, MDM2 SWIB domain from Takifugu rubripes (Japanese puffer) (Takifugu rubripes (Japanese puffer))
T2 construct: MDM2 SWIB domain, Takifugu rubripes; pETM33 vector; Construct limits are in supplementary Spreadsheet S5; also called MDM2 T. rubripes; source: E. coli BL21 (DE3), purified (glutathione agarose, PreScission cleavage, Nickel Sepharose flow-through, SEC); not shown: His6, N-terminal, cleaved; GST, N-terminal, cleaved

## B1
[1]
  Kd: 790 ± 50 nM

B2: Danio rerio (zebrafish) p53TADP2 p53TAD^15–27 (peptide)
peptide: Ac-SQEFAELWEKNL
notes: numbers count on: human p53TAD; also called p53TAD^15–27_(D.rerio); source: bought: GeneCust (France), peptide
[2]
  Kd: 3600 ± 300 nM

B3: Takifugu rubripes (Japanese puffer) p53TADP1 p53TAD^full-length (domain or fragment)
chain: MTLNEMTSSSMFLCRSSSDLPAHHRGRMEDEGFSLPLSQDTFQDLWENVAAPSIVTIPTTSLENEQWHQELLMNYPELPFNEELFNLPSEMASKDSANLSTPTVPV
[3]
  Kd: 470 ± 30 nM
